In patent publication US20040156851A1, “HMGB1 combination therapies” (Critical Therapeutics, Inc., priority 2002, published 2004):

B1: HMGB1: Recombinant full length human HMGB1, GST fusion system, SEQ ID NO:18; recombinant rat HMGB1 used in some experiments (protein, listed as Homo sapiens)
chain: MGKGDPKKPTGKMSSYAFFVQTCREEHKKKHPDASVNFSEFSKKCSERWKTMSAKEKGKFEDMAKADKARYEREMKTYIPPKGETKKKFKDPNAPKRLPSAFFLFCSEYRPKIKGEHPGLSIGDVAKKLGEMWNNTAADDKQPYEKKAAKLKEKYEKDIAAYRAKGKPDAAKKGVVKAEKSKKKKEEEEDEEDEEDEEEEEDEEDEEDEEEDDDDE
B2: B box: Human HMGB1 mutant containing only the B box, SEQ ID NO:20 (protein, listed as Homo sapiens)
chain: FKDPNAPKRLPSAFFLFCSEYRPKIKGEHPGLSIGDVAKKLGEMWNNTAADDKQPYEKKAAKLKEKYEKDIAAY

Tests used:
RAW 264.7 cells [1] = assay: 125I-HMGB1 cell surface binding to RAW 264.7 cells; set-up: species or system murine; conditions: 4° C., specific binding (FIG. 5A)
Experimental: Purified HMGB1 protein (10 μg) was radiolabeled with 0.2 mCi of carrier-free ^125I (NEN Life Science Products Inc., Boston, Mass.) using Iodo-beads (Pierce, Rockford, Ill.) according to the manufacturer's instructions. ^125I-HMGB1 protein was separated from un-reacted ^125I by gel chromatography columns (P6 Micro Bio-Spin Chromatography Columns, Bio-Rad Laboratories, Hercules, Calif.) previously equilibrated with 300 mM sodium chloride, 17.5 mM sodium citrate, pH 7.0, and 0.1% bovine serum albumin (BSA). The specific activity of the eluted HMGB1 was about 2.8×10^6 cpm/μg protein. Cell surface binding studies were performed as previously described (Yang et al., Am. J. Physiol. 275:C675-C683, 1998). […] The radioactivity in the lysate was then measured using a gamma counter. Specific binding was determined as total binding minus the radioactivity obtained in the presence of an excess amount of unlabeled HMGB1 or A box proteins.
To determine whether the HMGB1 A box acts as an antagonist by displacing HMGB1 binding, ^125I-labeled —HMGB1 was added to macrophage cultures and binding was measured at 4° C. after 2 hours. Binding assays in RAW 264.7 cells were performed as described herein. ^125I-HMGB1 binding was measured in RAW 264.7 cells plated in 24-well dishes for the times indicated in FIG. 5A. […] The specificity of binding was assessed as described in Example 1. […]

RAW 264.7 cells [2] = assay: TNF release from RAW 264.7 cells stimulated with HMGB1, mutants or B box peptides (L929 cytotoxicity bioassay); assay type: cell-based, murine
Experimental: Murine macrophage-like RAW 264.7 cells (American Type Culture Collection, Rockville, Md.) were cultured in RPMI 1640 medium (Life Technologies, Grand Island, N.Y.) supplemented with 10% fetal bovine serum (Gemini, Catabasas, Calif.), penicillin and streptomycin (Life Technologies) and were used at 90% confluence in serum-free Opti-MEM I medium (Life Technologies, Grand Island, N.Y.). […] Polymyxin B was not used in experiments of synthetic peptide studies.
TNF release was measured by a standard murine fibroblast L929 (ATCC, American Type Culture Collection, Rockville, Md.) cytotoxicity bioassay (Bianchi et al., Journal of Experimental Medicine 183:927-936, 1996) with the minimum detectable concentration of 30 pg/ml. Recombinant mouse TNF was obtained from R&D system Inc., (Minneapolis, Minn.). Murine fibroblast L929 cells (ATCC) were cultured in DMEM (Life Technologies, Grand Island, N.Y.) supplemented with 10% fetal bovine serum (Gemini, Catabasas, Calif.), penicillin (50 units/ml) and streptomycin (50 μg/ml) (Life Technologies) in a humidified incubator with 5% CO2.
The effect of the mutants on TNF release from Murine macrophage-like RAW 264.7 cells (ATCC) was carried out as follows. RAW 264.7 cells were cultured in RPMI 1640 medium (Life Technologies, Grand Island, N.Y.) supplemented with 10% fetal bovine serum (Gemini, Catabasas, Calif.), penicillin and streptomycin (Life Technologies). Polymyxin (Sigma, St. Louis, Mo.) was added at 100 units/ml to suppress the activity of any contaminating LPS. Cells were incubated with 1 μg/ml of full length (wild-type) HMGB1 and each HMGB1 mutant protein in Opti-MEM I medium for 8 hours. Conditioned supernatants (containing TNF which had been released from the cells) were collected and TNF released from the cells was measured by a standard murine fibroblast L929 (ATCC) cytotoxicity bioassay (Bianchi et al., supra) with the minimum detectable concentration of 30 pg/ml. Recombinant mouse TNF was obtained from R & D Systems Inc., (Minneapolis, Minn.) and used as control in these experiments. Data in FIG. 1 are all presented as mean±SEM unless otherwise indicated. (N=6−10).
(§1) To further examine the effect of HMGB1 B box on cytokine production, varying amounts of HMGB1 B box were evaluated for the effects on TNF, IL-1B, and IL-6 production in murine macrophage-like RAW 264.7 cells. Conditioned media were harvested and measured for TNF, IL-1β and IL-6 levels. TNF levels were measured as described herein, and IL-1β and IL-6 levels were measured using the mouse IL-1β and IL-6 enzyme-linked immunosorbent assay (ELISA) kits (R&D System Inc., Minneapolis, Minn.) and N>5 for all experiments.
The kinetics of B box-induced TNF release were also examined. TNF release and TNF mRNA expression were measured in RAW 264.7 cells induced by B box polypeptide or GST tag polypeptide only (used as a control (vector)) (10 μg/ml) for 0 to 48 hours. Supernatants were analyzed for TNF protein levels by an L929 cytotoxicity assay (N=3-5) as described herein. For mRNA measurement, cells were plated in 100 mm plates and treated in Opti-MEM I medium containing B box polypeptide or the vector alone for 0, 4, 8, or 24 hours, as indicated in FIG. 2D. The vector only sample was assayed at the 4 hour time point. Cells were scraped off the plate and total RNA was isolated using the RNAzol B method in accordance with the manufacturer's instructions (Tel-Test “B”, Inc., Friendswood, Tex.). TNF (287 bp) was measured by RNase protection assay (Ambion, Austin, Tex.). Equal loading and the integrity of RNA was verified by ethidium bromide staining of the RNA sample on an agarose-formaldehyde gel. […] TNF mRNA expression was maximal at 4 hours and decreased at 8 and 24 hours. […] A similar study was carried out measuring TNF protein released from RAW 264.7 cells 0, 4, 8, 24, 32 or 48 hours after administration of B box or vector only (GST tag), using the L929 cytotoxicity assay described herein. […]

RAW 264.7 cells [3] = assay: IL-6 release from RAW 264.7 cells (ELISA); assay type: cell-based, murine; conditions: B box 0-10 μg/ml, 8 hours (FIG. 2C)
Experimental: as §1

C3H/HeJ mice = assay: Lethality and histology in C3H/HeJ mice; assay type: in vivo; conditions: 8 hours after administration

Molecule	125I-HMGB1 binding over time (RAW 264.7 cells [1])	TNF protein release over time (RAW 264.7 cells [2]; 10 μg/ml, 0-48 hours, compared to medium only (FIG. 2E))	TNF release, dose response (RAW 264.7 cells [2]; B box 0-10 μg/ml, 8 hours (FIG. 2A))	IL-6 release, dose response (RAW 264.7 cells [3])	histology of liver (C3H/HeJ mice)
B1	saturable first order binding kinetics				
B2		stimulated TNF protein expression	increased with increased amounts of B box	IL-6 release from RAW 264.7 cells increased with increased amounts of B box	mild acute inflammatory responses, with some hepatocyte dropout and apoptosis
